# Results as given in US10993998B2, “Determinants of cancer response to immunotherapy by PD-1 blockade” (Memorial Sloan Kettering Cancer Center, priority 2014, dated 2021).
# Legend:
# CD8+ T-cells [1] = test: MHC multimer screening of neoantigen-specific CD8+ T-cells in serially collected peripheral blood lymphocytes of a pembrolizumab responder; assay type: cell-based, human
# Protocol: HLA-A restricted candidate neoantigens were synthesized in-house (Netherlands Cancer Institute) and HLA-multimers containing these peptides were produced by micro-scale parallel UV-induced peptide exchange reactions as previously described (26, 58). Briefly, peptide-MHC complexes loaded with UV-sensitive peptide were subjected to 366-nm UV light (CAMAG) for one hour at 4° C. in the presence of candidate neoantigen peptide in a 384-well plate. pMHC multimers were generated using a total of 11 different fluorescent streptavidin (SA) conjugates (Invitrogen). For each pMHC monomer, conjugation was performed with two of these fluorochromes. NaN3 (0.02% w/v) and an excess of D-biotin (26.4 mM, Sigma) were added to block residual binding sites. For T cell staining an combinatorial encoding strategy was employed to be able to analyze for reactivity against up to 47 different peptides in parallel (27). The PBMC samples were thawed, treated with DNAse for 1 h and stained with pMHC multimer panels for 15 min at 37 C. Subsequently, anti-CD8-AF700 (Invitrogen), anti-CD4-FITC (Invitrogen), anti-CD14-FITC (Invitrogen), anti-CD16-FITC (Invitrogen), anti-CD19-FITC (Invitrogen), and LIVE/DEAD Fixable IR Dead Cell Stain Kit (Invitrogen) were added for additional 20 min on ice. Data acquisition was performed on an LSR II flow cytometer (Becton Dickinson) with FACSDiva 6 software. Cutoff values for the definition of positive responses were ≥0.005% of total CD8+ cells and ≥10 events. For immunophenotypical analysis, day 44 PMLs were stained with HERC1 P3278S MHC multimers in two colors (qdot 625 (Invitrogen) and PerCPeFluor710 (ebioscience)) plus anti-CD45RA Ab (Invitrogen), anti-CCR7 Ab (BD Bioscience), anti-HLA-DR Ab (BD Bioscience), and anti-LAG-3 Ab (R&D systems). The immunophenotype of HERC1 P3278S reactive and bulk CD8+ T-cells were analyzed. Data were acquired using an LSR II flow cytometer (Becton Dickson) with FASCDiva 6 software.
# CD8+ T-cells [2] = test: Intracellular cytokine staining after re-stimulation with mutant or wild-type HERC1 peptide; assay type: cell-based, human; settings: PBLs from day 63 and 297 expanded with mutant peptide, re-stimulated
# Protocol: HERC1 P>S mutant and wild type peptides of 9 amino acids in length (Mutant: […] (SEQ ID NO: 344), Wild type: […] (SEQ ID NO: 5925)) were synthesized (GenScript Piscataway, N.J.). 1.5×10^6 patient PBMCs were cultured with 1.5×10^6 autologous PBMCs pulsed with HERC1 P>S mutant peptide in RPMI media containing 10% pooled human serum (PHS), 10 mM HEPES, 2 mM L Glutamine, and 50 μM β-mercaptoethanol supplemented with IL-15 (10 ng/ml) and IL-2 (10 IU/ml), using methods previously described (59). […] Cells were then treated with 1× Brefeldin A and monensin (BioLegend) for 4 hours, and subsequently stained with 1 μL Alexa Fluor 405-CD3 (Invitrogen), 3 μL APC-H7-CD8 (BD Bioscience), and 1 μL ECD-CD4 (Beckman Coulter). Upon subsequent washing and permeabilization, the cells were stained with the following antibodies to intracellular cytokines: 3 μL Alexa Fluor 647-IFN-γ (Biolegend), 3 μL PE-MIP-1β, and 1 μL PE-Cy7-TNF-α (BD Pharmingen). Data were acquired by flow cytometry (using CYAN flow cytometer, Summit software, Dako Cytomation California Inc., Carpinteria, Calif.). Analysis was done by FlowJo version 10.1, TreeStar, Inc. CD3+ single cell lymphocytes were gated for analysis (SS vs. FS [low, mid], FS vs. Pulse Width [all, low], and CD3 vs. “dump” channel [high, low]).
# [3] = test system: stage IV non-small cell lung cancer (NSCLC) patients; test: Clinical efficacy of pembrolizumab in NSCLC patients (protocol NCT01295827), by tumor genomic subgroup; assay type: in vivo, human; settings: for ORR: all 34
# Protocol: All patients had stage IV non-small cell lung cancer (NSCLC) and were treated at Memorial Sloan Kettering Cancer Center (n=29) or the University of California at Los Angeles (n=5) on protocol NCT01295827 (FIG. 17). All patients initiated therapy in 2012-2013 and were treated at 10 mg/kg every 2-3 weeks, except for 5 patients treated at 2 mg/kg every 3 weeks. The overall response rate and progression-free survival are reported to be similar across dose and schedules (6). All patients had consented to Institutional Review Board-approved protocols permitting tissue collection and sequencing. PD-L1 expression was assessed prospectively by immunohistochemistry using a previously validated murine anti-human anti-PD-L1 antibody (clone 22C3, Merck & Co., Inc.). Membranous expression of PD-L1 on tumor cells and infiltrating immune cells were scored. 31 (91%) scored at least 1% positive for PD-L1 expression; 2 patients were PD-L1 negative; and 1 was unknown. Smoking status was evaluated using previously completed self-reported smoking questionnaires executed as standard of care at MSKCC or review of medical records at UCLA.
# Per protocol, CT scans were performed every nine weeks. Partial and complete responses were confirmed by a repeat imaging occurring at least 4 weeks after the initial identification of response; unconfirmed responses were considered stable or progressive disease dependent on results of the second CT scan. Durable clinical benefit (DCB) was defined as stable disease or partial response lasting longer than 6 months (week 27, the time of third protocol-scheduled response assessment). No durable benefit (NDB) was defined as progression of disease ≤6 months of beginning therapy. Patients who were still ongoing study therapy at the time of the data lock (Oct. 10, 2014) but who had not yet reached 6 months of follow up were considered “Not reached” (NR). These patients were not included in the analysis of DCB/NDB, but were included in assessments of objective response and progression-free survival. For patients with ongoing response to study therapy, progression free survival was censored at the date of the most recent imaging evaluation. For alive patients, overall survival was censored at the date of last known contact.
# Mann-Whitney test was used to compare mutation burdens and differences in the frequency of nucleotide changes. The Log-Rank and Mantel-Haenszel tests were used to compare Kaplan-Meier survival curves. The proportion of objective responders/non-responders or DCB/NDB were compared using Fisher's Exact Test. The receiver operator characteristic (ROC) curve was generated by plotting the proportion of all DCB patients with mutation burden above any given cut point (sensitivity) against the proportion of the NDB patients that would also exceed the same cut point (1-specificity). The area under the curve and exact 95% confidence intervals are reported. Correlations between nonsynonymous mutation burden and neoantigen burden, neoantigen burden and best overall response, and frequency of neoantigen burden/nonsynonymous mutation and best overall response were calculated using Spearman correlation formula. Statistical analyses were performed using GraphPad Prism v.6 (Graphpad Prism Software, San Diego, Calif.).
# [4] = test system: stage IV non-small cell lung cancer (NSCLC) patients; settings: 10 mg/kg every 2-3 weeks vs 2 mg/kg every 3 weeks; reference (6); cited from earlier work
# [5] = cited from earlier work
# [6] = approximately 2000 patients; cited from earlier work
# [7] = discovery cohort, high nonsynonymous burden
# [8] = discovery cohort, low nonsynonymous burden
# [9] = validation cohort, nonsynonymous mutation burden above the median
# [10] = validation cohort, nonsynonymous mutation burden below the median
# [11] = 411 patients, Trial 1, all grades
substance,measurement,setting,value
ASNASSAAK (listed as Homo sapiens) [synthesized 9 amino acid mutant HERC1 P>S neoantigen peptide],HERC1 P3278S neoantigen-specific CD8+ T-cell response (MHC multimer+),CD8+ T-cells [1]; Day 44,0.044 % of Cd8+ T-cells
same,HERC1 P3278S neoantigen-specific CD8+ T-cell response (MHC multimer+),"CD8+ T-cells [1]; at start of therapy, level of detection",< 0.005%
same,HERC1 P3278S neoantigen-specific CD8+ T-cell response (MHC multimer+),CD8+ T-cells [1]; subsequent months as tumor regression plateaued,just above background
same,HERC1 P3278S neoantigen-specific CD8+ T-cell response (MHC multimer+),CD8+ T-cells [1]; within 3 weeks post therapy initiation,0.040 % of CD8+ T-cells
same,"polyfunctional CD8+ T-cells (IFNγ, CD107a, MIP113, TNFα production) in response to peptide",CD8+ T-cells [2],detected
pembrolizumab,median PFS,[3]; TH tumors,not reached
same,rate of DCB,[3]; TH tumors,77%
same,median PFS,[3]; TL tumors,3.5
same,rate of DCB,[3]; TL tumors,22%
same,ORR,"[3]; transversion-high (TH, smoking signature) tumors",56%
same,ORR,[3]; transversion-low (TL) tumors,17%
same,confirmed objective response rate (ORR),[3]; [7],63%
same,median PFS,[3]; [7],14.5 months
same,rate of durable clinical benefit (DCB),"[3]; discovery cohort, high nonsynonymous burden (above median of cohort)",Seventy-three
same,rate of durable clinical benefit (DCB),"[3]; discovery cohort, low mutation burden",13%
same,confirmed objective response rate (ORR),[3]; [8],0%
same,median PFS,[3]; [8],3.7 months
same,rate of DCB,[3]; high nonsynonymous mutation burden (>200) and some PD-L1 expression (weak/strong),91%
same,rate of DCB,[3]; low mutation burden and some degree of PD-L1 expression,10%
same,decrease in tumor burden,[3]; one patient (Study ID #9) with exceptional response,95%
same,duration of partial response,[3]; one tumor with very low burden (56 nonsynonymous mutations),8 months
same,median PFS,"[3]; overall set, high neoantigen burden",14.5 months
same,median PFS,"[3]; overall set, low neoantigen burden",3.5 months
same,rate of DCB,[3]; self-reported ever smokers,48%
same,rate of DCB,[3]; self-reported never-smokers,33%
same,tumors with no durable benefit (NDB),"[3]; tumors with ≥178 nonsynonymous mutations, both cohorts",5 of 18
same,median PFS,[3]; [9],not reached
same,rate of DCB,[3]; [9],83%
same,median PFS,[3]; [10],3.4 months
same,rate of DCB,[3]; [10],22%
same,rate of durable benefit,"[3]; validation cohort, tumors harboring ≥178 mutations",75%
same,rate of durable benefit,"[3]; validation cohort, tumors with <178 mutations",14%
same,rate of DCB,"[3]; weak PD-L1 expression, high nonsynonymous mutation burden",75%
same,rate of DCB,"[3]; weak PD-L1 expression, low mutation burden",11%
same,overall response rate and progression-free survival across dose and schedules,[4],similar
same,"Pneumonitis, patients","[5]; 411 melanoma patients, Trial 1, all grades",2.9%
same,"Colitis (including microscopic colitis), patients",[5]; [11],1%
same,"Hepatitis (including autoimmune hepatitis), patients",[5]; [11],0.5%
same,"Hyperthyroidism, patients",[5]; [11],1.2%
same,"Hypophysitis, patients",[5]; [11],0.5%
same,"Hypothyroidism, patients",[5]; [11],8.3%
same,"Colitis Grade 2, patients",[5]; Trial 1,0.2%
same,"Colitis Grade 3, patients",[5]; Trial 1,0.5%
same,"Hepatitis Grade 4, patients",[5]; Trial 1,0.2%
same,"Hyperthyroidism Grade 2, patients",[5]; Trial 1,0.5%
same,"Hyperthyroidism Grade 3, patients",[5]; Trial 1,0.2%
same,"Hypophysitis Grade 2, patients",[5]; Trial 1,0.2%
same,"Hypophysitis Grade 4, patients",[5]; Trial 1,0.2%
same,"Hypothyroidism Grade 3, patients",[5]; Trial 1,0.2%
same,"Pneumonitis Grade 2, patients",[5]; Trial 1,1.9%
same,"Pneumonitis Grade 3, patients",[5]; Trial 1,0.2%
same,"discontinuation of KEYTRUDA due to pneumonitis, patients",[5]; Trial 1,0.7%
same,median duration of colitis,[5]; Trial 1,2.6 months
same,median duration of hyperthyroidism,[5]; Trial 1,2.8 months
same,median duration of pneumonitis,[5]; Trial 1,4.9 months
same,median time to development of pneumonitis,[5]; Trial 1,5 months
same,"other immune-mediated adverse reactions, patients: exfoliative dermatitis, uveitis, arthritis, myositis, pancreatitis, hemolytic anemia, partial seizures, adrenal insufficiency",[5]; Trial 1,less than 1%
same,patients who received corticosteroids or discontinued KEYTRUDA for management of hypothyroidism,[5]; Trial 1,No patient
same,"permanent discontinuation of KEYTRUDA due to colitis, patients",[5]; Trial 1,0.2%
same,"permanent discontinuation of KEYTRUDA due to hyperthyroidism, patients",[5]; Trial 1,0.2%
same,"Nephritis, patients",[5]; all grades,0.7%
same,duration of hepatitis,[5]; case of Grade 4 hepatitis,1.1 months
same,"Grade 2 autoimmune nephritis, patients","[5]; human, in vivo",0.2%
same,duration of autoimmune nephritis,"[5]; human, in vivo",3.2 months
same,"most common adverse reactions, patients: fatigue, cough, nausea, pruritus, rash, decreased appetite, constipation, arthralgia, diarrhea","[5]; human, in vivo",> 20%
same,patients who fully recovered renal function,"[5]; nephritis, with high-dose corticosteroids",All three
same,"interstitial nephritis with renal failure, patients",[5]; one Grade 3 and one Grade 4,0.5%
same,pneumonitis completely resolved,[5]; patients with Grade 2-3 pneumonitis,seven of the nine
same,complete resolution of colitis,[5]; patients with colitis,All four
same,complete resolution of hepatitis,[5]; patients with hepatitis,Both
same,complete resolution of hyperthyroidism,[5]; patients with hyperthyroidism,All five
same,"additional immune-mediated adverse reactions, patients: myasthenic syndrome, optic neuritis, rhabdomyolysis",[6],less than 1%
ASNAPSAAK (listed as Homo sapiens) [synthesized 9 amino acid wild type HERC1 peptide],"polyfunctional CD8+ T-cells (IFNγ, CD107a, MIP113, TNFα production) in response to peptide",CD8+ T-cells [2],not
